From publication PMC4470285, “A cell cycle-controlled redox switch regulates the topoisomerase IV activity” (Genes & Development, 2015)
Values belong to the molecule of their own block, whether it stands above or below them.

Legend:
[1] = target: NstA-seGFP (C. crescentus); experiment: not stated; cells overproducing NstA-seGFP, with or without 7.5 uM NEM (Supplemental Fig. S11B)
[2] = target: NstA(C8Y)-GFP (C. crescentus); experiment: non-reducing SDS-PAGE with immunoblot; GFP fusions expressed from the xylX locus in C. crescentus; reducing against non-reducing SDS-PAGE; disulfide-linked dimer; also synchronized cells at 0 and 60 min
[3] = target: the molecule itself; experiment: as above

stoichiometry N [1]: 2
Molecule: NstA-seGFP (natural protein)

stoichiometry N [2]: 2
Molecule: NstA(C8Y)-GFP (natural protein)

B1: NstA-GFP (natural protein, C. crescentus, UniProt A0A0H3CC90 1-66, looked up)
chain: MQVFTFFCVESDGSVPRFDVTPCADDAAARVRAFELLDMHHRCDFVEVWRGAQRVFDVFAQQVAAA
notes: NstA (CCNA_03091), C. crescentus, predicted protein of 66 residues; also called functional C-terminal GFP version of wild-type NstA; xylX::Pxyl-nstA-gfp; source: wild-type C. crescentus, expressed from the xylX locus on the chromosome, in lysate; not shown: GFP, C-terminal, kept
stoichiometry N [3]: 2
